Laboratory results taken from the supplement of paper PMC7877785.
± gives the uncertainty stated by the source.

Experiment: self-splicing fitness, log relative to wild type (ln ratio); higher = more splicing; Tetrahymena group I intron in knt gene, E. coli kanamycin selection, DiMSum; sequences stand for … in CUCUCU…GGAGGGAAAAGUUAUCAGGCAUGCACCUGGUAGCUAGUCUUUAAACCAAUAGAUUGCAUCGGUUUAAAAGGCAAGACCGUCAAAUUGCGGGAAAGGGGUCAACAGCCGUUCAGUACCAAGUCUCAGGGGAAACUUUGAGAUGGCCUUGCAAAGGGUAUGGUAAUAAGCUGACGGACAUGGUCCUAACCACGCAGCCAAGUCCUAAGUCAACAGAUCUUCUGUUGAUAUGGAUGCAGUUCACAGACUAAAUGUCGGUCGGGGAAGAUGUAUUCUUCUCAUAAGAUAUAGUCGGACCUCUCCUUAAUGGGAGCUAGCGGAUGAAGUGAUGCAACACUGGAGCCGCUGGGAACUAAUUUGUAUGCGAAAGUAUAUUGAUUAGUUUUGGAGUACUCGUGGUCG
Summary of the method: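 Six replicate transformations of E. coli BL21(DE3) with a pET-22b(+) library were grown overnight at 37°C or 30°C. The library randomised all eight P1ex-region intron nucleotides, the intron lying in the knt kanamycin-resistance gene, and plates were LB agar with or without 25 μg/mL kanamycin plus 100 μg/mL carbenicillin, 50 μM IPTG and 0.2% rhamnose. Pooled colonies were amplicon-sequenced on an Illumina HiSeq 2500, and fitness is the DiMSum error-weighted combination of wild-type-normalised replicate fold changes, kanamycin versus none.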

Sequence	self-splicing fitness (ln) (30 °C)	self-splicing fitness (ln) (37 °C)
UGGAAGCAAUAUUACGCGGG	-3.32 ± 0.24	-1.29 ± 0.22
GCACAGCAAUAUUACGGACG	-1.3 ± 0.14	0.0137 ± 0.14
CGUCAGCAAUAUUACGGUUU	-2.39 ± 0.098	-1.97 ± 0.097
AGGUAGCAAUAUUACGGUUC	-2.769 ± 0.022	-1.51 ± 0.036
UGUUAGCAAUAUUACGGCAG	0.45 ± 0.1	-1.03 ± 0.12
GUUAAGCAAUAUUACGUAUA	-1.79 ± 0.14	-1.54 ± 0.15
GCUCAGCAAUAUUACGGACU	0.158 ± 0.12	0.485 ± 0.19
CAUGAGCAAUAUUACGGUUA	-2.75 ± 0.23	-3.26 ± 0.32
CAGCAGCAAUAUUACGUACA	-2.34 ± 0.15	-1.97 ± 0.16
UAAAAGCAAUAUUACGAAGG	-2.61 ± 0.21	-1.6 ± 0.23
AUACAGCAAUAUUACGUAUA	-3.94 ± 0.26	-2.49 ± 0.16
CGGGAGCAAUAUUACGUUAG	-3.18 ± 0.26	-1.9 ± 0.29
CCGGAGCAAUAUUACGUCAU	-4 ± 0.24	-2.48 ± 0.21
UUAUAGCAAUAUUACGCCAA	–	-0.44 ± 0.25
UAGAAGCAAUAUUACGCUAU	-4.05 ± 0.27	-3.13 ± 0.27
UAGAAGCAAUAUUACGGCUG	-0.338 ± 0.11	0.218 ± 0.15
AGUUAGCAAUAUUACGCCUU	-0.974 ± 0.23	-0.383 ± 0.33
CUGUAGCAAUAUUACGGGCA	–	-2.5 ± 0.49
GAGUAGCAAUAUUACGGAAC	-3.8 ± 0.34	-1.79 ± 0.22
UGGAAGCAAUAUUACGUGUA	-2.12 ± 0.099	-0.482 ± 0.1
AGUUAGCAAUAUUACGUGGA	-1.87 ± 0.13	-1.58 ± 0.12
UGUAAGCAAUAUUACGGUCC	-2.16 ± 0.14	-1.29 ± 0.14
UUCAAGCAAUAUUACGUGGU	-4.01 ± 0.2	-2.7 ± 0.17
GAUCAGCAAUAUUACGUCGA	-1.35 ± 0.084	-0.202 ± 0.096
CUGAAGCAAUAUUACGAUGU	-3.12 ± 0.13	-1.21 ± 0.12
CAACAGCAAUAUUACGGGUU	-3.14 ± 0.15	-1.78 ± 0.12

Sequence	self-splicing fitness (ln) (30 °C)	self-splicing fitness (ln) (37 °C)
UCUUAGCAAUAUUACGACGU	-0.316 ± 0.1	-0.505 ± 0.13
CCGUAGCAAUAUUACGCCAC	-1.95 ± 0.22	-1.78 ± 0.33
GUCUAGCAAUAUUACGGUAU	-0.441 ± 0.1	0.315 ± 0.11
AGCAAGCAAUAUUACGUUCA	-0.99 ± 0.081	-0.464 ± 0.1
CUUCAGCAAUAUUACGAUGC	-2.93 ± 0.21	-2.23 ± 0.23
GGAAAGCAAUAUUACGUCCG	-0.651 ± 0.23	-0.324 ± 0.21
UCGAAGCAAUAUUACGUCAA	-1.52 ± 0.11	-1.15 ± 0.1
UUACAGCAAUAUUACGUUCG	-0.549 ± 0.061	-0.234 ± 0.091
CUUGAGCAAUAUUACGCUUU	-2.88 ± 0.32	-3.35 ± 0.31
UUAUAGCAAUAUUACGAUAA	-0.51 ± 0.11	-0.0656 ± 0.12
ACUUAGCAAUAUUACGAGCA	-1.2 ± 0.12	-0.129 ± 0.13
CUCAAGCAAUAUUACGGACA	-2.5 ± 0.35	-2.1 ± 0.32
ACACAGCAAUAUUACGACAC	-1.35 ± 0.081	0.0205 ± 0.11
CAAGAGCAAUAUUACGUGCU	-4.39 ± 0.31	-2.36 ± 0.17
CGAUAGCAAUAUUACGUUGG	-1.62 ± 0.091	-0.0971 ± 0.086
CAGCAGCAAUAUUACGAAGC	-4.28 ± 0.31	–
UUGUAGCAAUAUUACGAGCG	-1.01 ± 0.14	-0.454 ± 0.28
GCCAAGCAAUAUUACGUGAU	-0.879 ± 0.053	0.385 ± 0.07
CCACAGCAAUAUUACGCUAA	-3.8 ± 0.22	-1.62 ± 0.15
UUAGAGCAAUAUUACGCCGG	-0.922 ± 0.19	0.69 ± 0.36
AUUUAGCAAUAUUACGUGCC	-0.606 ± 0.15	0.118 ± 0.14
ACGCAGCAAUAUUACGCGGU	-4.57 ± 0.19	-2.37 ± 0.12
UACUAGCAAUAUUACGUCAC	-3.47 ± 0.26	–
GAUAAGCAAUAUUACGCGAA	-2.31 ± 0.093	-1.65 ± 0.11
GAGCAGCAAUAUUACGCAAU	-1.89 ± 0.12	-1.53 ± 0.2
CUCAAGCAAUAUUACGGAGA	-2.83 ± 0.19	-1.98 ± 0.15

Sequence	self-splicing fitness (ln) (30 °C)	self-splicing fitness (ln) (37 °C)
UUGAAGCAAUAUUACGUGAG	-0.592 ± 0.067	-0.805 ± 0.093
UACGAGCAAUAUUACGGACC	-3.28 ± 0.24	-3.19 ± 0.43
ACAAAGCAAUAUUACGAGCA	-1.56 ± 0.14	-0.49 ± 0.12
CUUAAGCAAUAUUACGUGCG	-1.34 ± 0.079	-0.172 ± 0.1
ACUGAGCAAUAUUACGGAAG	-2.52 ± 0.13	-1.21 ± 0.2
GUGGAGCAAUAUUACGCGAG	–	-1.53 ± 0.38
ACGUAGCAAUAUUACGCUAU	-4.59 ± 0.34	-3.11 ± 0.35
UACUAGCAAUAUUACGGCUC	-1.67 ± 0.19	-0.765 ± 0.18
UUCAAGCAAUAUUACGAUUC	-2.57 ± 0.15	-2.22 ± 0.19
UUCGAGCAAUAUUACGAUCU	-2.66 ± 0.19	-1.83 ± 0.23
CCUCAGCAAUAUUACGUAAG	-0.219 ± 0.059	0.292 ± 0.082
CCGAAGCAAUAUUACGGAGG	-4.7 ± 0.31	-2.44 ± 0.21
UGACAGCAAUAUUACGCAGU	-2.63 ± 0.15	-2.13 ± 0.27
UCAGAGCAAUAUUACGUCGG	-1.87 ± 0.2	-0.479 ± 0.16
CGAGAGCAAUAUUACGGGCG	-2.3 ± 0.14	-1.39 ± 0.18
UAUGAGCAAUAUUACGAGUG	-1.52 ± 0.095	-0.43 ± 0.11
GUGUAGCAAUAUUACGCUAU	–	-1.15 ± 0.24
AAAUAGCAAUAUUACGGGGG	-2.94 ± 0.36	-2.11 ± 0.31
CGUUAGCAAUAUUACGAGAG	-2.83 ± 0.25	0.0196 ± 0.17
UUUUAGCAAUAUUACGAGGA	-1.04 ± 0.17	-1.3 ± 0.21
CCGGAGCAAUAUUACGCUGC	–	-2.04 ± 0.38
CUGGAGCAAUAUUACGACGU	–	-1.09 ± 0.2
GUAGAGCAAUAUUACGAACA	-2.46 ± 0.17	-0.783 ± 0.16
ACUUAGCAAUAUUACGUGGA	-2.47 ± 0.13	-2.7 ± 0.16
CUCUAGCAAUAUUACGUUCA	-3.66 ± 0.34	-3.02 ± 0.27
CGGAAGCAAUAUUACGGGUU	-4.48 ± 0.26	-2.77 ± 0.2
